The target of one experiment is T1, mHDAC2-FLAG (mouse, UniProt P70288 1-488).
T1 construct: Species is read from the prefix 'm' of the plasmid name; also called pCMX-mHDAC2-FLAG; not shown: FLAG tag
Kind of experiment: co-immunoprecipitation from co-transfected HEK 293 cells: anti-FLAG IP, anti-Myc blot. From the text: (§1) FIG. 10. Identification of proteins interacting with WDR13. […] B) Immunolocalization of WDR13 protein in HELA cells transfected with pCMV-FLAG-Wdr13 (SEQ ID NO: 3) vector using anti FLAG antibody. C) Silver stained gel of immunoprecipitated proteins using anti FLAG antibody from HELA cells transfected with pCMV-FLAG control and pCMV-FLAG-Wdr13 vectors having SEQ ID NO: 3.
(§2) FIG. 11. Interactions of WDR13 with ERs, HDACs and PHIP1 A) HEK 293 cells were co-transfected with FLAG-Wdr13 (from the position 922 to 2443 in SEQ ID NO: 3) and GFP-ERα, grown in the presence or absence of estradiol. The cell lysate was immunoprecipitated with anti FLAG antibody and immunoblotted with anti GFP antibody. […] B) HEK 293 cells were co-transfected with FLAG-Wdr13 (from the position 922 to 2443 in SEQ ID NO: 3) and Myc-ERβ I (from the position 900-2673 in SEQ ID NO: 6), grown in the presence or absence of estradiol. The cell lysate was immunoprecipitated with anti FLAG antibody and immunoblotted with anti Myc antibody. […] C) HEK 293 cells were co-transfected with Myc-Wdr13 (from the position 900 to 2448 in SEQ ID NO: 4)/various FLAG-HDACs and the cell lysate was immunoprecipitated with anti FLAG antibody and immunoblotted with anti Myc antibody.

In another experiment the target is T2, hHDAC4-FLAG (human, UniProt P56524 1-1084, limits assumed).
T2 construct: Species is read from the prefix 'h' of the plasmid name; also called pCMX-hHDAC4-FLAG; not shown: FLAG tag
Described as above.
Description: as §1, §2

We go through 1 molecule from patent publication US20140157444A1 (COUNCIL OF SCIENTIFIC AND INDUSTRIAL RESEARCH, published 2014).

T2 sequence (P56524 whole entry): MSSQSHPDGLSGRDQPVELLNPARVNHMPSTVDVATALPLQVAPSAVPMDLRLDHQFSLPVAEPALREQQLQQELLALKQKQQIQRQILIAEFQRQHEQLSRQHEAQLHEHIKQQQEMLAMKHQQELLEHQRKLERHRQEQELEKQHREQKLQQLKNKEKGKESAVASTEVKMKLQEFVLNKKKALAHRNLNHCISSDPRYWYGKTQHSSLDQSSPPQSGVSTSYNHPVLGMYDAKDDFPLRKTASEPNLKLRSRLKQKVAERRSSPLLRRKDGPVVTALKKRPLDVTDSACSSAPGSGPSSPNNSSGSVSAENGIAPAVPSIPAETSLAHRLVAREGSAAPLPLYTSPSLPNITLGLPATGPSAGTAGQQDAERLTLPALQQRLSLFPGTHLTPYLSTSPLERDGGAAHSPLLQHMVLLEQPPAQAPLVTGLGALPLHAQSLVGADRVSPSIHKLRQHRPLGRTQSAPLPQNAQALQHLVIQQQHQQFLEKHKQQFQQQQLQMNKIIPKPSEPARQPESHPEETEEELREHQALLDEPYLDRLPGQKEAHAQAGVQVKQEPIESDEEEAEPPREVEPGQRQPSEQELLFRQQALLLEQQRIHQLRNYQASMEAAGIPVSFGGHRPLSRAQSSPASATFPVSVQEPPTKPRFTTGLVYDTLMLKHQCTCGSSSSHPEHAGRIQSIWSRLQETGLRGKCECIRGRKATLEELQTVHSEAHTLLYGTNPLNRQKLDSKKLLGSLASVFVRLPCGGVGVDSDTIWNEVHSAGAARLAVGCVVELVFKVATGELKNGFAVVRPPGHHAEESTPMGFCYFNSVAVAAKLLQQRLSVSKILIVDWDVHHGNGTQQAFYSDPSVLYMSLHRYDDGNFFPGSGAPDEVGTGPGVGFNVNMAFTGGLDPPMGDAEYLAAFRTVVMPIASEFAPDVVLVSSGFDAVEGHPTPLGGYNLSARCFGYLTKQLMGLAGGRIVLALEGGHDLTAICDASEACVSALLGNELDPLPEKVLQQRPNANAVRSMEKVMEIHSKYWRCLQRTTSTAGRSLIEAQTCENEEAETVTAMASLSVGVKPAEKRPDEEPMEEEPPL
T1 sequence (P70288 whole entry): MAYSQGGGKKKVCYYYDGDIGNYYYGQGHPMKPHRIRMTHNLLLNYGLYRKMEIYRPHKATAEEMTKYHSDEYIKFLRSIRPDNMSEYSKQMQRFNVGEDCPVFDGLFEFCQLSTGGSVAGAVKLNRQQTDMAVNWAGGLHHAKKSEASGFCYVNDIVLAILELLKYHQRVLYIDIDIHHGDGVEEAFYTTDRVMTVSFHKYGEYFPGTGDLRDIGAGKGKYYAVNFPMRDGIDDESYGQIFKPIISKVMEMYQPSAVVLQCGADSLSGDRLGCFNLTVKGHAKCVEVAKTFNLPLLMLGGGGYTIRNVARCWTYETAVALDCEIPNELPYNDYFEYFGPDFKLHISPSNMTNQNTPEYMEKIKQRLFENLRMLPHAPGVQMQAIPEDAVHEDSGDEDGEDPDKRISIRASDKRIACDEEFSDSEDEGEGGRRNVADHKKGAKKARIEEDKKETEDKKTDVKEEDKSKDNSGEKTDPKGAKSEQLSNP

B1: Myc WDR13 fusion protein (other, mouse, UniProt Q91V09 1-485, looked up)
chain: MAAVWQQVLAVDARYNAYRTPTFPQFRTQYIRRRSQLLRENAKAGHPPALRRQYLRLRGQLLGQRYGPLSEPGSARAYSNSIVRSSRTTLDRMEDFEDDPRALGARGHRRSVSRGSYQLQAQMNRAVYEDRPPGSVVPTSVAEASRAMAGDTSLSENYAFAGMYHVFDQHVDEAVPRVRFANDDRHRLACCSLDGSISLCQLVPAPPTVLHVLRGHTRGVSDFAWSLSNDILVSTSLDATMRIWASEDGRCIREIPDPDGAELLCCTFQPVNNNLTVVGNAKHNVHVMNISTGKKVKGGSSKLTGRVLALSFDAPGRLLWAGDDRGSVFSFLFDMATGKLTKAKRLVVHEGSPVTSISARSWVSREARDPSLLINACLNKLLLYRVVDNEGALQLKRSFPIEQSSHPVRSIFCPLMSFRQGACVVTGSEDMCVHFFDVERAAKAAVNKLQGHSAPVLDVSFNCDESLLASSDASGMVIVWRREQK
notes: Overexpressed in HEK 293 cells; (mouse gene); also called pCMV-Myc-Wdr13; not shown: Myc peptide at the N-terminus, from the pCMV-Myc vector
For the molecule B1, the binding result with mHDAC2-FLAG and with hHDAC4-FLAG was “no binding” each time.
